From patent publication US20160084821A1

Target: BRCA1 protein (mouse) (mouse) (UniProt P48754)
Assay: cell-based or functional assay

Sequence of UniProt P48754 (P48754 whole entry): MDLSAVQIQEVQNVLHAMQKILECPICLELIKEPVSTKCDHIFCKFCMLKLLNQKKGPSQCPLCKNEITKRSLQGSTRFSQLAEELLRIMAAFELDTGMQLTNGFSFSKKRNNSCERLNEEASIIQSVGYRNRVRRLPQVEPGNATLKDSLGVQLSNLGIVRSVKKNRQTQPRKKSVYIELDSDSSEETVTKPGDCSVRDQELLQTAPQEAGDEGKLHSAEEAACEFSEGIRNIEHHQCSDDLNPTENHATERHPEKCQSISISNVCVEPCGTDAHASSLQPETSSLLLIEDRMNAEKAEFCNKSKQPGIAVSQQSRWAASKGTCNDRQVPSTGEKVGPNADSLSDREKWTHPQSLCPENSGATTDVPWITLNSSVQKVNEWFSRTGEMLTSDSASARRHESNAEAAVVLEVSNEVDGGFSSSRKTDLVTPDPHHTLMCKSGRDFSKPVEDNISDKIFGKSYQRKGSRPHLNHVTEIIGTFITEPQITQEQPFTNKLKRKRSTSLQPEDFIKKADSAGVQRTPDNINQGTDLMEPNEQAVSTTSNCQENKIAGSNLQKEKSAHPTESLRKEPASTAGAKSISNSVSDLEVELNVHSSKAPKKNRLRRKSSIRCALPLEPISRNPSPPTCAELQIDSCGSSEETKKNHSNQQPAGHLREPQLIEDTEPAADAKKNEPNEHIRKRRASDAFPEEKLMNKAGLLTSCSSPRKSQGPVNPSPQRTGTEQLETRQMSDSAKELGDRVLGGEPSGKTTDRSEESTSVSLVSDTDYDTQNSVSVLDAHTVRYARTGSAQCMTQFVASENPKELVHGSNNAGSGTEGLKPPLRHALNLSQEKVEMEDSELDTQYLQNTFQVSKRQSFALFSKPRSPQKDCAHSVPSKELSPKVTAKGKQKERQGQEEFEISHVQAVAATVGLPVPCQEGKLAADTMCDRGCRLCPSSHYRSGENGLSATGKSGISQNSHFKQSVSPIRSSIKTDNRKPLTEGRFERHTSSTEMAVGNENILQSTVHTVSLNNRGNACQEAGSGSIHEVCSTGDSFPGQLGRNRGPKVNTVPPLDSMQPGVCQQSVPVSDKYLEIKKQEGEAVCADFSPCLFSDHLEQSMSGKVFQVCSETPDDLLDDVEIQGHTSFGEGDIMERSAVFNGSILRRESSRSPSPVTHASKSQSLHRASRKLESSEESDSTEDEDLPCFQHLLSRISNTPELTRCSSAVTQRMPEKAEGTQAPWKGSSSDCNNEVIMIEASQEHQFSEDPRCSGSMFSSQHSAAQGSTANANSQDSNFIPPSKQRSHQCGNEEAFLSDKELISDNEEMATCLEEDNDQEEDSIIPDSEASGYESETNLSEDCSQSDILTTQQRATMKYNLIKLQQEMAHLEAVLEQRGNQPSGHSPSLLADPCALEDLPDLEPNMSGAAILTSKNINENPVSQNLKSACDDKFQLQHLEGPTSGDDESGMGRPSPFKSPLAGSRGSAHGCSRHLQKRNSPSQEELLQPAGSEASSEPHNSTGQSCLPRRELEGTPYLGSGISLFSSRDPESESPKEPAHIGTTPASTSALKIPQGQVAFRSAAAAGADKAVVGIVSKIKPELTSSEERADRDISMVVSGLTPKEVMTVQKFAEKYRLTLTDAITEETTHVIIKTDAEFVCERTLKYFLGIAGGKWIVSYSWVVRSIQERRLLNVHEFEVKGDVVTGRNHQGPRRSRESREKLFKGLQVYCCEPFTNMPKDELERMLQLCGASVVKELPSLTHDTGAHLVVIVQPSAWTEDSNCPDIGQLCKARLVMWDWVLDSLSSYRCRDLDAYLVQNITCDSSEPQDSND

- anti-FANCD2 foci co-localized with regions of intense anti-BRCA1 staining (20 pachytene nuclei): 65%
Substance: FANCD2 protein (mouse, on meiotic chromosomes of spermatocytes) (from UniProt Q80V62 1-1450)
